According to patent publication US20250320288A1 (ELIXIRON IMMUNOTHERAPEUTICS HONG KONG, published 2025):

Target: recombinant human IFN-γ (human)
Assay: cell-based or functional assay

Sequence of recombinant human IFN-γ (human) (P01579 24-161): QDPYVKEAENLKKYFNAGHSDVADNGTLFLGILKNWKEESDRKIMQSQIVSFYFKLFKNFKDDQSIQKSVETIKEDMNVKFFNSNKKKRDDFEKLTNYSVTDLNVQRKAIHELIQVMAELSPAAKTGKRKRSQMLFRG

EC50 restoring melanogenesis (melanin content, absorbance at 470 nm) of human primary melanocytes cultured with 20 ng/mL IFN-γ for 7 days: 0.129 µg/mL
B1: EI-001 (2A6Q), human monoclonal anti-IFN-γ antibody (antibody, human IgG1, lambda, V domains shown)
VH: EVQLVESGGGLVKPGDSLTVSCVASGFTFSNYFIHWVRQAPGKGLEWVATISGRTKYMFYSDSLRGRFTVSRDNAQNSVYLHMSSLRGEDTALYYCVRGYDHSDSNSAADLLHWGRGTLVTVSS
VL: NFMLTQPLSVSGYPGKTIVISCVRSSGSVASHYVQWFQQRPGSAPAMVIYEDSHRPSGIPDRFSGSVDASSNSASLTISGLKTEDEADYFCQSYYGNNQVLFGGGTKLTVLG
EC50 of EI-001 restoring viability of human primary melanocytes cultured with 30 ng/mL IFN-γ (CellTiter-Glo, 72 hrs): 0.00521 µg/mL
